Results from patent publication US20230138047A1, “ANTI-CLAUDIN-1 MONOCLONAL ANTIBODIES FOR THE PREVENTION AND TREATMENT OF FIBROTIC DISEASES” (Université de Strasbourg, priority 2019, published 2023).

Key:
[1] = molecular target: T1, CLDN1 on HREpic (PECs model) (Homo sapiens, UniProt O95832); assay: Flow cytometry binding on Human Renal Epithelial Cells (HREpic); conditions: 10 μg/mL, 24 hours after TNFα 10 ng/mL
T1 construct: Human Renal Epithelial Cells (HREpic), which are primary cell isolated from human kidney; host or cells: HREpic (Human Renal Epithelial Cells), TNFα-treated
T1 sequence (O95832 1-211): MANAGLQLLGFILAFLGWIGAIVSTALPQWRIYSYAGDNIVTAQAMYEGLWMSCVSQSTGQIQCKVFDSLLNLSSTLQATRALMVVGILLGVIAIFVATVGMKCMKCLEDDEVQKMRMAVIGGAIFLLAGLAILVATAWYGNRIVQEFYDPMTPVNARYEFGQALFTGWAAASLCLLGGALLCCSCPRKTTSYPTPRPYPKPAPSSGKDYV
Procedure: (§1) Cells. Human Renal Epithelial Cells (HREpic) were purchased from ScienCell Research Laboratories and grown in Epithelial Cell Medium according to manufacturer's instructions.
Flow cytometry. H3L3 binding and expression of human CLDN1 in HREpic was analyzed by flow cytometry 24 hours after TNFα treatment (10 ng/mL). Briefly, 200,000 cells per conditions were stained using H3L3 (10 μg/mL) or Mota (10 μg/mL) used as negative control. Primary antibodies were detected using an Alexa fluor 647-conjugated human-specific secondary antibody. Data were acquired using Cytoflex B2R2V0 (Beckman Coulter) and analyzed using CytExpert 2.1 and FlowJo v10. CLDN1 expression is shown as the difference of the mean fluorescence intensities of cells stained with H3L3 and cells stained with Mota.

TGF-β signalling = assay: TGF-β signaling reporter assay in A549 cells; type: cell-based; conditions: 50 μg/mL for 3 hours, TGF-β 10 ng/mL
Procedure: TGF-β Signaling Reporter Assay. A549 cells were transfected with TGF-β signalling reporter plasmid pGLA4.48[luc2P/SBE/Hygro] (Promega) using Fugene according to the manufacturer's instructions. Following transfection, the cells were supplemented with fresh medium containing control or CLDN1-specific mAb (50 μg/mL) for 3 hours at 37° C. Fresh medium was supplemented to the cells containing TGF-β (10 ng/mL) (Sigma) for 3 hours at 37° C. The plate was incubated for 15 minutes at room temperature followed by addition of ONE-Glo substrate (Promega) for 3 minutes at room temperature. Luminescence of the supernatants was read using a Berthold microplate reader.

[2] = molecular target: T2, CLDN1 expressed on RPTEC/TERT1 cells (Homo sapiens, UniProt O95832); assay: Flow cytometry binding study on RPTEC/TERT1 kidney cells
T2 construct: endogenous in cells; host or cells: RPTEC/TERT1
T2 sequence (O95832 1-211): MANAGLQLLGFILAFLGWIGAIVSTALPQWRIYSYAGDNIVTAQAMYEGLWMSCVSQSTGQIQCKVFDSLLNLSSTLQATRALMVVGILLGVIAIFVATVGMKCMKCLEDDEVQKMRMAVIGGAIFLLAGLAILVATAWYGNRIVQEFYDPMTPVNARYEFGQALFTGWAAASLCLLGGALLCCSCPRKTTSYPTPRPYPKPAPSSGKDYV
Procedure: (§2) Cell Lines. The kidney cancer cell line RPTEC/TERT1 and lung cancer cell line A549, both originally from ATCC, were obtained from IGBMC in a collaboration with Dr. Irwin Davidson and Dr. Izabella Sumara, respectively. Both cell lines were cultured according to provider's instructions: the RPTEC/TERT1 kidney cancer cells were grown in ATCC-formulated DMEM:F12 Medium supplemented with hTERT RPTEC Growth Kit and 0.1 mg/mL G418. The A549 lung cancer cells were grown in ATCC-formulated F-12K Medium supplemented with 10% fetal bovine serum.
(§3) Binding Studies. Cells were de-attached using a solution of EDTA (4 mM) and re-suspended in PBS containing 1% FBS at 4° C. Then, 150,000 cells were incubated with increasing concentrations of the humanized H3L3 CLDN1-specific mAb (see WO/2017/162678) and the binding signals were read by flow cytometry after incubation with PE-labelled anti-human using a dilution of 1:100 and analyzed with Cytoflex and FlowJo V10. Two washes with PBS containing 1% FBS were performed after every antibody incubation. A binding curve for each cell line was built using the PE median fluorescence intensity (MFI) and the Kd of the interaction was calculated by applying the Michaelis-Menten mathematical model in R 3.5.1.

[3] = system: Human Renal Epithelial Cells (HREpic); assay: HREpic 3D-culture proliferation/viability (ATP quantification); type: cell-based; conditions: TNFα 10 ng/mL, 10 μg/mL antibody, 6 days, preliminary data
Procedure: as §1
H3L3 Treatment. For 2D-culture, cells were seeded in 24-well plates coated with Poly-L-Lysine at a cell density of 5.10^4 cells/well. After 24 hours, the cells were treated with TNFα 10 ng/mL and Mota (10 μg/mL) or H3L3 (10 μg/mL). After 3 days, the cells were again treated with TNFα and antibody for 3 more days. After 6 days of treatment in total, the cells were lysed to measure gene expression by qRT-PCR. For 3D-culture, cells were seeded in 96-well ultra-low attachment plates (Corning, Sigma Aldrich, France) at a cell density of 5×10^3 cells/well. The same treatment as described above was applied for 6 days. Cell viability was assessed by ATP quantification using CellTitreGlo (Promega) according to manufacturer's instructions.
Statistics. Data are presented as the mean±s.d. and were analyzed by the unpaired Student's t-test or the two-tailed Mann-Whitney test as indicated after determination of distribution by the Shapiro-Wilk normality test. All experiments were performed at least in triplicates for 2D-culture and quadruplicates for 3D-culture. Data are considered as significant at p<0.05. Statistical analyzes for in vitro experiments were performed with GraphPad Prism 6 software.

[4] = system: Adriamycin-induced nephropathy; assay: Adriamycin-induced nephropathy model; type: in vivo, BALB/c mice; conditions: 250 μg/mouse i.p. twice weekly, 27 days; versus control group and valproic acid group
Procedure: The Adriamycin-induced nephropathy (ADR) model is a well-characterized disease model for chronic kidney disease and mirrors human kidney disease caused by primary focal segmental glomerulosclerosis (FSGS). The Adriamycin-induced nephropathy is a mouse model the mimics human FSGS (Focal Segmental Glomerulosclerosis). An efficacy study was performed at SMC lab (Tokyo, Japan) in accordance with local standards of ethics and animal care. Induction of Adriamycin-induced nephropathy model started on Day 0, when mice were intravenously administered adriamycin (doxorubicin hydrochloride, Wako Pure Chemical Industries, Ltd., Japan) in 0.9% saline at a dose of 13 mg/kg, in a volume of 10 mL/kg.
Groups of eight Adriamycin-induced nephropathic male BALB/c mice were administered either vehicle [saline], anti-CLDNA 1 mAb H3L3 (250 μg/mouse, twice weekly) intraperitoneally, or VPA (=valproic acid, provided at 0.4% in the drinking water) as a positive control for 27 days. Serum creatinine and BUN (blood urea nitrogen) was measured by FUJI DRI-CHEM 7000 (Fujifilm Corporation, Japan).

[5] = molecular target: T3, CLDN1 expressed on A549 cells (Homo sapiens, UniProt O95832); assay: Flow cytometry binding study on A549 lung cells; set-up: unit not given here
T3 construct: endogenous in cells; host or cells: A549
T3 sequence (O95832 1-211): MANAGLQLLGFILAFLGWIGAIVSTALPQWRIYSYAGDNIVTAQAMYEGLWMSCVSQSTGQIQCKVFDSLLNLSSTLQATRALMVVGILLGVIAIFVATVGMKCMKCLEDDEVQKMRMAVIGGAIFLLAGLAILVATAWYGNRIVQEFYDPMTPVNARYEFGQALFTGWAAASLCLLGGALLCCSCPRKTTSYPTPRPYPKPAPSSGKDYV
Procedure: as §2, §3

- binding to PECs CLDN1 [1]: binds to PECs CLDN1
- concentration saturating the epitope [2]: 50 µg/mL
- concentration saturating the epitope [5]: 20
B1: H3L3: humanized anti-Claudin-1 monoclonal antibody, two VH of SEQ ID NO: 3 and two VL of SEQ ID NO: 6 (antibody, V domains shown)
VH: QVQLVESGGGVVQPGRSLRLSCLGSGFSFSSYGMNWVRQAPGKGLEWVASISPSGSYFYYADSVKGRFTISRDNSKNTLYLQMTSLRAEDTAIYYCARLPGFNPPFDHWGQGTLVTVSS
VL: DIQMTQSPSSLSASVGDRVTITCKASQNVGGNVDWYQWKPGKAPKLLIYGASNRYTGVPDRFRGSGSGTDFTLTISSLQPEDVATYYCLQYKNNPWTFGGGTKVEIK
modifications: humanized variable heavy chain H3; humanized variable light chain L3
- TGF-β reporter activity (TGF-β signalling): significant reduction
- cell proliferation/viability [3]: slight decrease
- serum BUN [4]: non-significant but pronounced reduction
- serum creatinine [4]: non-significant but pronounced reduction
